The assay has as its target mCherry^N-gp418^N chimeric protein.

For the substance gp418^C-mCherry^C chimeric protein, the concurrent in situ splicing in a four-strain E. coli co-culture: mCherry fluorescence (580 nm excitation-610 nm emission) of the purified protein mixture turned out to be 35000 a.u.
